Laboratory results published in US20130078188.

What was measured:
[1] = target: T1, Cy7-NH-e9-c(S-Peg12) oDPRSFL-r9-c(Cy5)-CONH2 (5, …)
T1 chain: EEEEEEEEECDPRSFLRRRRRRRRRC

[2] = target: T2, Cy7-NH-e9-c(S-Peg12)oPLGC(Me)AG-r9-c(Cy5)-CONH2 (20, …(Me)AG)
T2 chain: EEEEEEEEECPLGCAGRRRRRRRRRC

[3] = target: T3, Cy7-NH-e9-c(S-Peg12) oPPRSFL-r9-c(Cy5)-CONH2 (10, …)
T3 chain: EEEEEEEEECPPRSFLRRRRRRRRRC

B1: plasmin (protein)
chain: KVYLSECKTGNGKNYRGTMSKTKNGITCQKWSSTSPHRPRFSPATHPSEGLEENYCRNPDNDPQGPWCYTTDPEKRYDYCDILECEEECMHCSGENYDGKISKTMSGLECQAWDSQSPHAHGYIPSKFPNKNLKKNYCRNPDRELRPWCFTTDPNKRWELCDIPRCTTPPPSSGPTYQCLKGTGENYRGNVAVTVSGHTCQHWSAQTPHTHNRTPENFPCKNLDENYCRNPDGKRAPWCHTTNSQVRWEYCKIPSCDSSPVSTEQLAPTAPPELTPVVQDCYHGDGQSYRGTSSTTTTGKKCQSWSSMTPHRHQKTPENYPNAGLTMNYCRNPDADKGPWCFTTDPSVRWEYCNLKKCSGTEASVVAPPPVVLLPDVETPSEEDCMFGNGKGYRGKRATTVTGTPCQDWAAQEPHRHSIFTPETNPRAGLEKNYCRNPDGDVGGPWCYTTNPRKLYDYCDVPQCAAPSFDCGKPQVEPKKCPGRVVGGCVAHPHSWPWQVSLRTRFGMHFCGGTLISPEWVLTAAHCLEKSPRPSSYKVILGAHQEVNLEPHVQEIEVSRLFLEPTRKDIALLKLSSPAVITDKVIPACLPSPNYVVADRTECFITGWGETQGTFGAGLLKEAQLPVIENKVCNRYEFLNGRVQSTELCAGHLAGGTDSCQGDSGGPLVCFEKDKYILQGVTSWGLGCARPNKPGVYVRVSRFVTWIEGVMRNN
kcat/Km [1]: 10000 M⁻¹ s⁻¹ | peptide cleavage, SDS-PAGE with Cy5/Cy7 ratio imaging [2]: not cleaved by any of the pro-coagulation enzymes | kcat/Km, fold lower than for thrombin [3]: 14.3 fold lower kcat/Km
